Laboratory results published in publication PMC12472674 (Nanomaterials, 2025).

Tests used:
[1] = Octanol–water partition coefficient (logP), shake-flask method; assay type: physicochemical; conditions: mutually saturated n-octanol/distilled water, 10 mg freeze-dried complex in 10 mL of each phase, stirred 400 rpm 24 h, 25 °C, HPLC-UV 230 nm, SMG 5.36 mg/mL, in the presence of Zn 0.5 mg/mL (Figure 2a), mean, n = 3
Experimental: The prepared SMG–PS–Zn complex suspensions were stored at −80 °C for 24 h, then freeze-dried using a lyophilizer (TFD 8501, Ilshinbiobase Co. Ltd., Dongducheon-si, Republic of Korea) at −80 °C and under a vacuum of <10 mTorr for 24 h to obtain dried samples. Then, the octanol–water partition coefficient (logP) was determined using the classical shake-flask method. Equal volumes of n-octanol and distilled water were mutually saturated by vigorous mixing and phase separation. Ten milligrams of freeze-dried complexes were placed in a 20 mL scintillation vial, followed by the addition of 10 mL each of the pre-saturated octanol and water phases. The vial was sealed and stirred at 400 rpm for 24 h to reach equilibrium. After incubation, the mixture was centrifuged at 13,000 rpm to separate the phases. The octanol phase was diluted 10-fold with methanol, and the aqueous phase was diluted 10-fold with the mobile phase. Drug concentrations in both phases were quantified using high-performance liquid chromatography (HPLC) analysis, and logP was calculated as the logarithm of the ratio of drug concentration in octanol to that in water.
The concentration of SMG in the complex suspension was quantified by reversed phase-HPLC, with minor modifications to previously reported methods. […] The limits of detection and quantification were 0.523 μg/mL and 1.569 μg/mL, respectively.

[2] = Solubility of SMG in release medium; assay type: physicochemical
[3] = healthy subjects, SC injection; cited from earlier work
Description: SMG is a 31-amino acid peptide with a molecular weight of 4113.58 Da, structurally derived from native GLP-1 by substitutions at positions 8 (alanine to α-aminoisobutyric acid) and 34 (lysine to arginine), and acylation of the lysine residue at position 26 with a C18 fatty diacid chain. These modifications enhance albu ...

Semaglutide [SMG]
logP (octanol/distilled water) [1]: approximately −4.7
Solubility in PBS (pH 7.4) release medium [2]: 26.8 mg/mL
Elimination half-life [3]: approximately 7 days
